Assay results from publication PMC10121901.

How the values were obtained:
[1] = molecular target: CA-N21C A22C (CA spheres) (HIV-1); test: negative-stain EM of NuPODs mixed with CA assemblies
[2] = molecular target: CA-N21C A22C (CA spheres) (HIV-1); test: co-sedimentation
[3] = molecular target: CA-A14C E45C (disulfide-crosslinked CA tubes; also assembled into cones with IP6) (HIV-1); test: negative-stain EM of NuPODs mixed with CA assemblies

Row | Substance | fold preference for binding to spheres over tubes (NuPODs in excess) [1] | percent of NuPODs in the supernatant (with the CA spheres) [2] | percent of NuPODs bound to CA spheres and CA tubes at the same time [3] | percent of NuPODs bound to CA spheres and CA tubes at the same time [1]
1 | MBP-Nup153^(CTD, aa 896–1475) (from UniProt P49790 896-1475) (domain or fragment) | 60 fold | 95% | – | –
2 | Nup358^(RBD4-CycH, aa 2911–3225) (from UniProt P49792 2911-3224) (domain or fragment) | – | – | 20 to 50% | 20 to 50%
